Measurements reported in doi:10.1101/2022.01.13.476221.
* marks the point of attachment. Biotin = O=C1N[C@H]2[C@H](CS[C@H]2CCCCC(=O)*)N1

What was measured:
[1] = target: T1, unphosphorylated human MST2-K (kinase domain, residues 1-314) (human) (UniProt Q13188)
T1 sequence: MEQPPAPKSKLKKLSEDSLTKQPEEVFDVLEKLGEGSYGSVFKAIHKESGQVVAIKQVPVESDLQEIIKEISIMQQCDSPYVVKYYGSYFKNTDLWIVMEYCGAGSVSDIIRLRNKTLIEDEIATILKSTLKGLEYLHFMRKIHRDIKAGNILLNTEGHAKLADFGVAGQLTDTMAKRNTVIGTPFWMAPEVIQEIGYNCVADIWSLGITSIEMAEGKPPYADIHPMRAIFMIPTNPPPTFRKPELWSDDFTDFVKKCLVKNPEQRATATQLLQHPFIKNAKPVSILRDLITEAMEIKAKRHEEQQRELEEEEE

[2] = target: T2, unphosphorylated human MST2-FL (residues 1-484) (human) (UniProt Q13188)
T2 sequence: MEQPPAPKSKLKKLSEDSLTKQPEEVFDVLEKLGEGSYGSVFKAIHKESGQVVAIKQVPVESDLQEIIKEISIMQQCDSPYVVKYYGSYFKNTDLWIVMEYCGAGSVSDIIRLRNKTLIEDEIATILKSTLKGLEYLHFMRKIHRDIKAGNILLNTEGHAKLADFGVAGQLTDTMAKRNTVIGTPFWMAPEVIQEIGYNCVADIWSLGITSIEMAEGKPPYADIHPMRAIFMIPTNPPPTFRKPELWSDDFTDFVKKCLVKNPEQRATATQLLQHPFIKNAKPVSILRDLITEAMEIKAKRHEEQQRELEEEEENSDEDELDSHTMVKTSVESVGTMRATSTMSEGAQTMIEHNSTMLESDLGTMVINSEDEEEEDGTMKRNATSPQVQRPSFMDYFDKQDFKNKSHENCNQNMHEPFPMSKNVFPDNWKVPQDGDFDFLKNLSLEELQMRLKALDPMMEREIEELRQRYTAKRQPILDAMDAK

[3] = target: T3, unphosphorylated human MST2-KL (kinase-linker, residues 1-433) (human) (UniProt Q13188)
T3 sequence: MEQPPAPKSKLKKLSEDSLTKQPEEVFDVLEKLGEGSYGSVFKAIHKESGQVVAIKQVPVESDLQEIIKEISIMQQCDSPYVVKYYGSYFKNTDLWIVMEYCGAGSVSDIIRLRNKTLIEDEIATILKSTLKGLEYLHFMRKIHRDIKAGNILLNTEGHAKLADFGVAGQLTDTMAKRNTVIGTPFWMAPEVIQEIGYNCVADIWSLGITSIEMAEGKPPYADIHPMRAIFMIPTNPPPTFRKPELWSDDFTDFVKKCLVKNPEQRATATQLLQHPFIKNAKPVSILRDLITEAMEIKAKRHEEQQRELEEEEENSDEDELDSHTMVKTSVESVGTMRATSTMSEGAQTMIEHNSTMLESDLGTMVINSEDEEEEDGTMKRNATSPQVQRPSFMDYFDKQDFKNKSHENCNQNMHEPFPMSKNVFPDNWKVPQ

Km^app (peptide), radiometric kinase assay, steady state, 30°C [1]: 625 µM | Km^app (peptide), radiometric kinase assay, steady state, 30°C [2]: 139 µM | Km^app (peptide), radiometric kinase assay, steady state, 30°C [3]: 804 µM
B1: biotinylated peptide substrate Biotin-…-NH2 (peptide)
peptide: Biotin-GGGENWYNTLKRKK-NH2
SMILES: CC(C)C[C@H](NC(=O)[C@@H](NC(=O)[C@H](CC(N)=O)NC(=O)[C@H](Cc1ccc(O)cc1)NC(=O)[C@H](Cc1c[nH]c2ccccc12)NC(=O)[C@H](CC(N)=O)NC(=O)[C@H](CCC(=O)O)NC(=O)CNC(=O)CNC(=O)CNC(=O)CCCC[C@@H]1SC[C@@H]2NC(=O)N[C@@H]21)[C@@H](C)O)C(=O)N[C@@H](CCCCN)C(=O)N[C@@H](CCCNC(=N)N)C(=O)N[C@@H](CCCCN)C(=O)N[C@@H](CCCCN)C(N)=O
